Test results from patent US20220177604A1 (ARGENX, published 2022).
Positions count from the first letter of the chain named.

B1: Oma VH15W100b - VL3 (antibody, V domains shown)
VH: EVQLVESGGGLVQPGGSLRLSCAVSGYSITSGHRWEWIRQAPGKGLEWVASIHYDGSTNYNPSVKGRITISRDDSKNTFYLQMNSLRAEDTAVYYCARATHYFGHHHFAVWGQGTLVTVSS
VL: DIQLTQSPSSLSASVGDRVTITCRASQSVDYDGDSYMNWYQQKPGKAPKLLIEWGSYLRSGVPSRFSGSGSGTDFTLTISSLQPEDFATYYCQQNAEDPYTFGQGTKVEIK
B2: OmaVH15G55HW100b - VL3 (antibody, V domains shown)
VH: B1 VH with G56H
VL: B1 VL
B3: OmaVH15G55HW100b - VL3D28H (antibody, V domains shown)
VH: B1 VH with G56H
VL: B1 VL with D32H
notes: also called OmaVH15G55HW100b VL3D25H
B4: 3A1 human IgG1 mAb (antibody, V domains shown)
VH: EVQVQESGGGLVQPGGSLRLSCAASGFTFDNYAMSWVRQAPGKGLEWVSAISWNGGSTYYAESMKGRFTISRDNAKNMLYLQMNSLKSEDTAVYYCAKDLLVAARGGMDYWGKGTLVTVSS
VL: SSALTQPSAVSVSLEQTARITCQGGTLGSYGAHWYQQKPGQAPVLLIYGDNSRPSGIPERFSGTRSGGTATLTISGAQAEDEADYYCQSFDYSGNAVFGGGTHLTVL
notes: human IgG1 and human light chain constant domains; also called clone 3A1
B5: 18B9 human IgG1 mAb (antibody, V domains shown)
VH: QVQLVESGGGLVQPGGSLRLSCAASGFTFSSYVMSWVRQAPGKGLEWVSSIYSDGSHTYYADSVKGRFTISRDNAKNTLYLQMNSLKSEDTAVYYCAKNLEHYSGSYYYTDPRYDYWGQGTQVTVSS
VL: SSALTQPSALSVTLGQTAKITCQGGSLGSSYVHWYQQKPGQAPVLVIYDGDSRPSGIPERFSGSSSGGTATLTISGAQAEDEDDYYCQSADSSGNAVFGGGTHLTVL
notes: human IgG1 and human light chain constant domains; also called clone 18B9
B6: 3D6 human IgG1 mAb (antibody, V domains shown)
VH: QVQLVESGGGLVQPGGSLRLSCAASGFTFSSYYMTWVRQAPGKGLEWVSSIYSDGSNTYYADSVKGRFTISRDNAKNTLHLQMNSLKSEDTAVYYCAKDLKARYSGSYHDEGYDYWGQGTQVTVSS
VL: B5 VL with S1Q, V32A, G50D, T69R, D83G, A96P, H103K
notes: human IgG1 and human light chain constant domains; also called clone 3D6
B7: 20D5 human IgG1 mAb (antibody, V domains shown)
VH: B5 VH with V2L, T28A, S35T, G66D, Y80F, N99D, L100A, H102Y, P112T, R113K
VL: B5 VL with V32A, D49A, G50D, D83G
notes: also called clone 20D5
B8: 16E4 human IgG1 mAb (antibody, V domains shown)
VH: B6 VH with Q1E, T35S, N57Y, T58A, H80Y, S107T
VL: B5 VL with T17S, S29A, S30T, V32A, H33Y, G50D, T69R, D83G, D91Y, S93N
notes: also called clone 16E4
B9: 18E2 human IgG1 mAb (antibody, V domains shown)
VH: QLQLVESGGGLVQPGGSLRLSCAASGFTFSSYVMSWVRQAPGKGLEWVSSIYHDGSHTYYADFVKGRFTISRDNAKNTLYLQMNSLKSEDTAVYYCASGTSYSGSYYYTDPFFGSWGQGTQVTVSS
VL: NFMLTQPSALSVTLGQTARITCQGDRLGSRYIYWYQQKPPQAPVLVIHDDDRRPSGIPERFSGSSSGGTATLTISGAQAEDDGDYYCQSADSSGNPVFGGGTHLTVL
notes: also called clone 18E2
B10: VL18E2_Y34H (antibody, V domains shown)
VH: B9 VH
VL: B9 VL with Y33H
B11: VH18E2_S35H (antibody, V domains shown)
VH: B9 VH with S35H
VL: B9 VL
B12: VH3D1_S35H (antibody, V domains shown)
VH: QLQVVESGGGLVQPGGSLRLSCAASGFTFSSYYMHWVRQAPGKGLEWVSSIYSDGRGSKTFYADSVKGRFTISRDNAKNTLYLQMNSLKSEDTAVYFCAKDLLVAARGSMDYWGQGTQVTVSS
VL: B4 VL with S1N, S2F, A3M
B13: VL3D1_Y49H VL3D1_Q89H (antibody, V domains shown)
VH: B12 VH with H35S
VL: B4 VL with S1N, S2F, A3M, Y48H, Q88H
B14: VH18B9_S35H (antibody, V domains shown)
VH: B5 VH with S35H
VL: B5 VL
B15: 18B9_VH_S35H_VL_Y49H (antibody, V domains shown)
VH: B5 VH with S35H
VL: B5 VL with Y48H

Biological target: T1, human immunoglobulin E (hIgE) (human, UniProt P01854-1 1-428)
T1 construct: also called human IgE; Native IgE (Abcam)
T1 sequence (P01854 whole entry): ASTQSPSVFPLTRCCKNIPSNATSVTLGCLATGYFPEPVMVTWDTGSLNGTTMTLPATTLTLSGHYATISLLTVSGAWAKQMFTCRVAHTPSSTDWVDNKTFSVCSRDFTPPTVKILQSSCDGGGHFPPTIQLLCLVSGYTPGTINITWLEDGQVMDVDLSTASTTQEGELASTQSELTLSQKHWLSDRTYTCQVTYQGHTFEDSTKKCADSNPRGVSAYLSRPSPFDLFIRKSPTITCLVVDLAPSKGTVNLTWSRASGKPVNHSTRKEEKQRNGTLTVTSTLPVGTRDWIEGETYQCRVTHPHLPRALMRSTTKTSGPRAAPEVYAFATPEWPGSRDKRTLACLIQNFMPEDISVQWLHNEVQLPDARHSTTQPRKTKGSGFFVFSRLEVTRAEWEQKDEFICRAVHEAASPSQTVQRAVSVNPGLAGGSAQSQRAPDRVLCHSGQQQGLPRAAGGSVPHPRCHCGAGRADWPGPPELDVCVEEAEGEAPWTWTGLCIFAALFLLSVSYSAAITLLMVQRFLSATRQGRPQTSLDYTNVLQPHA
Test: SPR (Biacore)

Row | Binder | Ratio pH 7.4/pH6.0 (of KD)
1 | B1 | 10.2
2 | B2 | 17.2
3 | B3 | 9

Biological target: T1, human immunoglobulin E (hIgE)
Test: SPR competition
Protocol: (§1) For this purpose, a competition approach was set-up. […] The assay was performed in HBS-EP pH7.4 or HBS-EP pH 5.5. Raw data were analyzed via BIA evaluation software with a blank subtraction (2-1). […] The IC50 values of each compound were calculated with a non-linear regression (log(agonist) vs. response Variable slope (four parameters)).

Row | Binder | Ratio pH 6/7.4 (IC50)
4 | B4 | 1.5
5 | B5 | 1.4
6 | B6 | 1.8
7 | B7 | 1.1
8 | B8 | 1.2

Biological target: T1, human immunoglobulin E (hIgE)
Test: competition ELISA
Protocol: (§2) The IC50 values of each compound were calculated with a non-linear regression (log(agonist) vs. response Variable slope (four parameters)).

Row | Binder | Ratio pH 6/7.4 (IC50)
9 | B9 | 2.4
10 | B4 | 1
11 | B5 | 2.7
12 | B6 | 2.8
13 | B7 | 1.1
14 | B8 | 2.7

Biological target: T2, recombinant Motavizumab human IgE (rMota-hIgE) (human, UniProt P01854 1-428)
T2 construct: also called Recombinant IgE (argenx)
T2 sequence (P01854 other isoform, or with tags, fused parts or gaps limits assumed, form in doubt): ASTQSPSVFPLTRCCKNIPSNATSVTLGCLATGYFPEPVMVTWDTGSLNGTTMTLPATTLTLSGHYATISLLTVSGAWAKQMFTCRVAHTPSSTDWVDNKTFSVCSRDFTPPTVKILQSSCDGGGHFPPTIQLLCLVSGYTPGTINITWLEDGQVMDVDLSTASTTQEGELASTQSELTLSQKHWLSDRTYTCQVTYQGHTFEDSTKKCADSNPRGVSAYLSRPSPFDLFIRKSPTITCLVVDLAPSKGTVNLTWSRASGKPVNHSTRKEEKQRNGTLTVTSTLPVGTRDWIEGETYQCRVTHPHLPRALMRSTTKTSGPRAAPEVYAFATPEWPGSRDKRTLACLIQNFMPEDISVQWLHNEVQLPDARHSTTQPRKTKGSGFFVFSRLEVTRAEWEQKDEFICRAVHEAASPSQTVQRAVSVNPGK
Test: hIgE binding ELISA
Protocol: (§3) Briefly a Maxisorp plate was coated with recombinant human respiratory syncytial virus protein F (RSV-F) (0.5 μg/mL), then blocked with PBS with 3% BSA and 0.05% Tween. […] After several washing steps at pH 7.4 or pH 5.5, detection of the bound mAbs was carried out with an anti-human Fc-HRP antibody.

Row | Binder | Ratio EC50 pH 5.5/7.4 | Ratio EC50 pH 7.4/5.5
15 | B1 | 1.9 | 0.53
16 | B2 | 13.5 | 0.07
17 | B3 | 9.6 | 0.1

Biological target: T1, human immunoglobulin E (hIgE)
Test: SPR (Biacore), pH 6.0

Row | Binder | Kd [nM] | koff [s⁻¹] | kon [M⁻¹ s⁻¹]
18 | B1 | 29.8 | 0.00875 | 294000
19 | B2 | 150 | 0.0254 | 170000
20 | B3 | 136 | 0.0648 | 123000

Biological target: T1, human immunoglobulin E (hIgE)
Test: SPR (Biacore), pH 7.4

Row | Binder | Kd [nM] | koff [s⁻¹] | kon [M⁻¹ s⁻¹]
21 | B1 | 2.93 | 0.00103 | 351000
22 | B2 | 8.69 | 0.00226 | 261000
23 | B3 | 15.2 | 0.00303 | 200000

Biological target: T2, recombinant Motavizumab human IgE …
Test: hIgE binding ELISA, pH 5.5
Protocol: as §3

Row | Binder | EC50 [µg/mL]
24 | B1 | 0.0326
25 | B2 | 0.221
26 | B3 | 0.13

Biological target: T2, recombinant Motavizumab human IgE …
Test: hIgE binding ELISA, pH 7.4
Protocol: as §3

Row | Binder | EC50 [µg/mL]
27 | B1 | 0.0174
28 | B2 | 0.0164
29 | B3 | 0.0135

Biological target: T1, human immunoglobulin E (hIgE)
Test: competition ELISA, hIgE to hFcεRIα

Row | Binder | IC50 [nM]
30 | B1 | 1.4
31 | B2 | 23.2
32 | B3 | 172

Biological target: T1, human immunoglobulin E (hIgE)
Test: SPR competition, hIgE over hFcεRIα chip, pH 5.5
Protocol: (§4) The assay was performed in HBS-EP pH7.4 or HBS-EP pH 5.5. Raw data were analyzed via BIA evaluation software with a blank subtraction (2-1). […] The IC50 values of each compound were calculated with a non-linear regression (log(agonist) vs. response Variable slope (four parameters)).
(§5) Raw data were analyzed via BIA evaluation software with a blank subtraction (2-1). […] The IC50 values of each compound, calculated with a non-linear regression (log(agonist) vs. response Variable slope (four parameters)).

Row | Binder | IC50 [µg/mL]
33 | B9 | 0.484
34 | B10 | 5.18
35 | B11 | 3.73
36 | B12 | 23
37 | B13 | 15.2
38 | B5 | 1.07
39 | B14 | 22.3
40 | B15 | 24.6

Biological target: T1, human immunoglobulin E (hIgE)
Test: SPR competition, hIgE over hFcεRIα chip, pH 7.4
Protocol: as §4, §5

Row | Binder | IC50 [µg/mL]
41 | B9 | 0.628
42 | B10 | 1.1
43 | B11 | 0.811
44 | B12 | 15.5
45 | B13 | 4.41
46 | B5 | 0.662
47 | B14 | 21.7
48 | B15 | 26.3

Biological target: T1, human immunoglobulin E (hIgE)
Test: SPR competition, hIgE + mAb over hFcεRIα chip, pH 7.4
Protocol: as §1

Row | Binder | IC50 [nM]
49 | B4 | 4.76
50 | B5 | 4.09
51 | B6 | 4.37
52 | B7 | 3.38
53 | B8 | 4.25

Biological target: T1, human immunoglobulin E (hIgE)
Test: competition ELISA, biotin-hIgE to coated hFcεRIα, pH 6
Protocol: as §2

Row | Binder | IC50 [nM]
54 | B9 | 87.8
55 | B4 | 148
56 | B5 | 112
57 | B6 | 214
58 | B7 | 39.1
59 | B8 | 156

Biological target: T1, human immunoglobulin E (hIgE)
Test: competition ELISA, biotin-hIgE to coated hFcεRIα, pH 7.4
Protocol: as §2

Row | Binder | IC50 [nM]
60 | B9 | 36.9
61 | B4 | 152
62 | B5 | 41.9
63 | B6 | 75.4
64 | B7 | 35.2
65 | B8 | 58

Biological target: T1, human immunoglobulin E (hIgE)
Test: SPR competition, hIgE + mAb over hFcεRIα chip, pH 6 (text: pH 5.5)
Protocol: as §1

Row | Binder | IC50 [nM]
66 | B4 | 6.91
67 | B5 | 5.65
68 | B6 | 8.04
69 | B7 | 3.83
70 | B8 | 5.17
